Measurements: US7094873

How the values were obtained:
[1] = target: Hsp90 in rabbit reticulocyte lysate (Hsp90 heterocomplex) (rabbit) (UniProt P30947); test: rabbit reticulocyte lysate with recombinant CHIP, immunoprecipitation of Hsp90 with 3G3, Western blot; displaced molecule: Hop
[2] = target: Hsp90 in rabbit reticulocyte lysate (Hsp90 heterocomplex) (rabbit) (UniProt P30947); test: reticulocyte lysate with 35S-labeled GR, with or without CHIP, immunoprecipitation of Hsp90 with 3G3; displaced molecule: GR

Chain of Hsp90 in rabbit reticulocyte lysate (Hsp90 heterocomplex) (rabbit) (P30947 2-726, one chain of several): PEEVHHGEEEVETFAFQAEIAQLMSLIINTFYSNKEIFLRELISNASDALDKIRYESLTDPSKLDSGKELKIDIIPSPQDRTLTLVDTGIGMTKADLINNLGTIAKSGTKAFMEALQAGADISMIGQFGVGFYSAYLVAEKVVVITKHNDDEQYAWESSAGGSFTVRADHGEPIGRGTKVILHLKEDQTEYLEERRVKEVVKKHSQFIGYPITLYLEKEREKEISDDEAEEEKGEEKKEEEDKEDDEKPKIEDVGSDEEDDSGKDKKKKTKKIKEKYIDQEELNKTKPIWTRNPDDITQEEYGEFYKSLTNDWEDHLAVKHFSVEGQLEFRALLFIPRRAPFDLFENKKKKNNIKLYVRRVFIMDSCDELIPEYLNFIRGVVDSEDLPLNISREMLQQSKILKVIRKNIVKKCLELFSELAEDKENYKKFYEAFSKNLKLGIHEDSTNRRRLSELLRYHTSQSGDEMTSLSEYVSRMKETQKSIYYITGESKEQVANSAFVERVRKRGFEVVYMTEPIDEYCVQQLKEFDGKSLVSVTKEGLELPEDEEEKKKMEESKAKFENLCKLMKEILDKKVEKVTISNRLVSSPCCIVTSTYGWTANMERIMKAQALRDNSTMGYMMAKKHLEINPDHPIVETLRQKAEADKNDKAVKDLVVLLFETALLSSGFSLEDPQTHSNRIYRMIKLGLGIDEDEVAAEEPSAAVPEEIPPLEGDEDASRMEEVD

decrease of the amount of Hop associated with the Hsp90 complex [1]: 50%
decrease of GR co-precipitated with Hsp90 [2]: 50%
Substance: Recombinant hCHIP (His-tagged fusion from plasmid pET-hCHIP, expressed in E. coli BL21) (from UniProt Q9UNE7 1-303)
